From article PMC3711130
Like-named read-outs stand apart in the source and are kept apart here.

Assays:
[1] = molecular target: pyr-actin·WT-Tm·hcTn thin filament (rabbit | rat | human) (UniProt P68135); assay: stopped-flow fluorescence
[2] = molecular target: pyr-actin·D175N-Tm·hcTn thin filament (rabbit | rat | human) (UniProt P68135); assay: stopped-flow fluorescence
[3] = molecular target: pyr-actin·WT-Tm·hcTn thin filament (rabbit | rat | human) (UniProt P68135); assay: stopped-flow fluorescence; remark: listed apart in the source
[4] = molecular target: pyr-actin·WT-E180G-Tm·hcTn thin filament (rabbit | rat | human) (UniProt P68135); assay: stopped-flow fluorescence
[5] = molecular target: pyr-actin·WT-D175N-Tm·hcTn thin filament (rabbit | rat | human) (UniProt P68135); assay: stopped-flow fluorescence
[6] = molecular target: pyr-actin·E180G-Tm·hcTn thin filament (rabbit | rat | human) (UniProt P68135); assay: stopped-flow fluorescence
[7] = molecular target: His-Tm (wild-type α-tropomyosin homodimer with a histidine tag) (rat); assay: cross-linking

Chain of myosin subfragment 1 (native rabbit skeletal) (domain or fragment) (Q28641 whole entry, the tested form may be a part): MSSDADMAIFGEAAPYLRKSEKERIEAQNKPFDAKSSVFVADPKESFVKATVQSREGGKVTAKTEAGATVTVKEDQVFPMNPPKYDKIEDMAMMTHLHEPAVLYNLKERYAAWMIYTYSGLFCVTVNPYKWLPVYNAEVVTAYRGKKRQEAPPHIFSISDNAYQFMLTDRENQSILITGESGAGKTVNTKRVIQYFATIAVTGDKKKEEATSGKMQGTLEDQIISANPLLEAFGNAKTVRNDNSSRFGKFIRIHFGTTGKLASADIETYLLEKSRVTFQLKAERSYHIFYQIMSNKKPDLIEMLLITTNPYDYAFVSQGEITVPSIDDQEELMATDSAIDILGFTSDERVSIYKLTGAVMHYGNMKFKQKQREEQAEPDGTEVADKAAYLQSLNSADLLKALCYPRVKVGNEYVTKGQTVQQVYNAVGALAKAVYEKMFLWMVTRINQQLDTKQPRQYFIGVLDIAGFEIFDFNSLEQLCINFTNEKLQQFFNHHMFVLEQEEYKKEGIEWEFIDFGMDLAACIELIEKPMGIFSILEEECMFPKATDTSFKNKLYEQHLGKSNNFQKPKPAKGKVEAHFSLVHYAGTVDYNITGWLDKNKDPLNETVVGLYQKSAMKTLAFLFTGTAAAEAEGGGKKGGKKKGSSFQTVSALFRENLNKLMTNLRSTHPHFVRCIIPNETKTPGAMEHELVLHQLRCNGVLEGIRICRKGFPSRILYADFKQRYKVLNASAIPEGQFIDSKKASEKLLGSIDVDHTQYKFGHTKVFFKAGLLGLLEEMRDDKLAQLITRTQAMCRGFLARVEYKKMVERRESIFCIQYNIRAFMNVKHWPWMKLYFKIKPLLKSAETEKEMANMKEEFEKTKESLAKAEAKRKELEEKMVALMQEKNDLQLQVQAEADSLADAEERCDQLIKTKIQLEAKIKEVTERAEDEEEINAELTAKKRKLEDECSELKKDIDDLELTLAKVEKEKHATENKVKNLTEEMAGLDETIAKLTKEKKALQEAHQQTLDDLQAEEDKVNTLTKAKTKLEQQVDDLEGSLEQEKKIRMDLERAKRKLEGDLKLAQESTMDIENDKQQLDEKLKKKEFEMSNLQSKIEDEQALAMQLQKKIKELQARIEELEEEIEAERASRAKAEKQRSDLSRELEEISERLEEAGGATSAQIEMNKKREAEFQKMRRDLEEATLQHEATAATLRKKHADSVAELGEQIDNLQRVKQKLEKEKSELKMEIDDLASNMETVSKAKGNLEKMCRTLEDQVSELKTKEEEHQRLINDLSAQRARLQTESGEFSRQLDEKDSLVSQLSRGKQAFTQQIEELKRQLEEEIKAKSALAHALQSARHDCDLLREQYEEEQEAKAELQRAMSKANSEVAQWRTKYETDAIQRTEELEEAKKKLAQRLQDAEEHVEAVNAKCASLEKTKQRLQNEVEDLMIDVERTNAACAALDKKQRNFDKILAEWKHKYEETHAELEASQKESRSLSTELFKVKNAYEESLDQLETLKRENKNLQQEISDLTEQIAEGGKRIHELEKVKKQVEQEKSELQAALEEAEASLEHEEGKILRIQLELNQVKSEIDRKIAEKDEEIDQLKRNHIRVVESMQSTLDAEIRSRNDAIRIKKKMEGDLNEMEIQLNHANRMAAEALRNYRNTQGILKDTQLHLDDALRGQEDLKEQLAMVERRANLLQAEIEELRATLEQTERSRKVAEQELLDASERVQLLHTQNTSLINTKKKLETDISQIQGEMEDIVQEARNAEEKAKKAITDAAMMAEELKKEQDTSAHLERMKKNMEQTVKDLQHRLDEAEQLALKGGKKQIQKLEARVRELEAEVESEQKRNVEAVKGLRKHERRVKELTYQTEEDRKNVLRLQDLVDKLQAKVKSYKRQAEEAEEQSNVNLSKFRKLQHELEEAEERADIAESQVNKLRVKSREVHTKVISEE

Substance | kobs with Ca2+ [1] | kobs without Ca2+ [1] | kobs with Ca2+ [2] | kobs without Ca2+ [2] | kobs with Ca2+ [3] | kobs without Ca2+ [3] | kobs with Ca2+ [4] | kobs without Ca2+ [4] | kobs with Ca2+ [5] | kobs without Ca2+ [5] | kobs with Ca2+ [6] | kobs without Ca2+ [6] | stoichiometry N [7]
myosin subfragment 1 (native rabbit skeletal) (domain or fragment) | 7 s^–1 | 2 s^–1 | 8.48 s^–1 | 2.41 s^–1 | 7.68 s^–1 | 2.21 s^–1 | 7.58 s^–1 | 2.31 s^–1 | 8 s^–1 | 2.31 s^–1 | 8.46 s^–1 | 2.71 s^–1 | 
D175N-Tm (α-tropomyosin homodimer with the D175N mutation in both chains) (natural protein) |  |  |  |  |  |  |  |  |  |  |  |  | 1
